We go through 13 compounds from patent US20250276081A1, “Mucin-Active Proteases and Methods of Use” (priority 2022, published 2025).

Assay [1] relates to OVCAR-3 cells. In words: Bioactive compound library screen and STACK cell death analysis ± StcE. In kind it is cell-based. As to the method: Bioactive compound library screen. A library of 261 bioactive compounds (Selleck Chemicals) was stored at −80° C. The library was re-formatted from 96-well to 384-well format using a Versette automated liquid handler configured with a 96-channel pipetting head and diluted to 2 mM in DMSO. The day before the screen, 5×10^3 OVCAR-3^N cells/well were seeded into two 384-well plates in 45 μL of medium. The next day, the medium was removed and replaced with medium containing 20 nM Sytox Green and compounds from a freshly thawed library master stock plate (1 compound/well) were added to a final concentration of 500 nM. One plate was co-treated with vehicle (PBS) and the other with 50 nM StcE. Plates were imaged immediately and every 2 h thereafter for a total of 72 h using the Essen IncuCyte Zoom. Counts of Sytox Green and mKate^2 objects per mm^2 were obtained and the lethal fraction calculated as previously described^2. […] The Bliss Independence Model was used to compute expectant cell death of compound+ StcE treatment using normalized AUC (nAUC) values, and deviation from this expectation was used to infer modulation of cell death, as described previously^3.
Measuring cell death using STACK. Follow-up cell death experiments of OVCAR-3^N cells were performed using scalable time-lapse analysis of cell death kinetics (STACK) 2. […]

The target of assay [2] is mucin-1 (MUC1) (human) (UniProt P15941).
The target of assay [3] is K562^HER2 cell surface.
The target of assay [4] is human epidermal growth factor receptor 2 (HER2) (human) (UniProt P04626).
For assay [5], the target named is Annexin A1 (ANXA1) (human) (UniProt P04083).
Assay [6] addresses CD29 (human) (UniProt P05556).
The target of assay [7] is CD30 (human) (UniProt P28908).
Assay [8] concerns the target CD43 (sialophorin) (human) (UniProt P16150).
Assay [9] addresses CD46 (human) (UniProt P15529).
Assay [10] deals with CD98 (human) (UniProt P08195).
Assay [11] addresses CD236 (human) (UniProt P04921).
Assay [12] deals with cell surface mucins on HeLa cells.

Sequence of CD43 (sialophorin) (human) (P16150 20-400): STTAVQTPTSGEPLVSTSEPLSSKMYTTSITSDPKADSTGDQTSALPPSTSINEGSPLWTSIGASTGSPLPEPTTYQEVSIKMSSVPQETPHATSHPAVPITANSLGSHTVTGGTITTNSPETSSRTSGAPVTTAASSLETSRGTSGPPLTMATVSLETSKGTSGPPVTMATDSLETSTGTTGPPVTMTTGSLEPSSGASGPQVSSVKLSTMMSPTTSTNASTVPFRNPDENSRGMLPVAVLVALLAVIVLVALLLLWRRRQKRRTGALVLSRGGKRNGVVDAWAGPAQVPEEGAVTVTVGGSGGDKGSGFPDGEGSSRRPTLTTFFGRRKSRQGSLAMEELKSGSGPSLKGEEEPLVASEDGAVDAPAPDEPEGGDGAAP
Sequence of CD236 (human) (P04921 whole entry): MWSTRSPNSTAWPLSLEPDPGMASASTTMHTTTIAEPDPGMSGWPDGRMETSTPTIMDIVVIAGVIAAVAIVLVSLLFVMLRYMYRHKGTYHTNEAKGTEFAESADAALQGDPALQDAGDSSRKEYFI
Sequence of mucin-1 (MUC1) (human) (P15941 24-1255): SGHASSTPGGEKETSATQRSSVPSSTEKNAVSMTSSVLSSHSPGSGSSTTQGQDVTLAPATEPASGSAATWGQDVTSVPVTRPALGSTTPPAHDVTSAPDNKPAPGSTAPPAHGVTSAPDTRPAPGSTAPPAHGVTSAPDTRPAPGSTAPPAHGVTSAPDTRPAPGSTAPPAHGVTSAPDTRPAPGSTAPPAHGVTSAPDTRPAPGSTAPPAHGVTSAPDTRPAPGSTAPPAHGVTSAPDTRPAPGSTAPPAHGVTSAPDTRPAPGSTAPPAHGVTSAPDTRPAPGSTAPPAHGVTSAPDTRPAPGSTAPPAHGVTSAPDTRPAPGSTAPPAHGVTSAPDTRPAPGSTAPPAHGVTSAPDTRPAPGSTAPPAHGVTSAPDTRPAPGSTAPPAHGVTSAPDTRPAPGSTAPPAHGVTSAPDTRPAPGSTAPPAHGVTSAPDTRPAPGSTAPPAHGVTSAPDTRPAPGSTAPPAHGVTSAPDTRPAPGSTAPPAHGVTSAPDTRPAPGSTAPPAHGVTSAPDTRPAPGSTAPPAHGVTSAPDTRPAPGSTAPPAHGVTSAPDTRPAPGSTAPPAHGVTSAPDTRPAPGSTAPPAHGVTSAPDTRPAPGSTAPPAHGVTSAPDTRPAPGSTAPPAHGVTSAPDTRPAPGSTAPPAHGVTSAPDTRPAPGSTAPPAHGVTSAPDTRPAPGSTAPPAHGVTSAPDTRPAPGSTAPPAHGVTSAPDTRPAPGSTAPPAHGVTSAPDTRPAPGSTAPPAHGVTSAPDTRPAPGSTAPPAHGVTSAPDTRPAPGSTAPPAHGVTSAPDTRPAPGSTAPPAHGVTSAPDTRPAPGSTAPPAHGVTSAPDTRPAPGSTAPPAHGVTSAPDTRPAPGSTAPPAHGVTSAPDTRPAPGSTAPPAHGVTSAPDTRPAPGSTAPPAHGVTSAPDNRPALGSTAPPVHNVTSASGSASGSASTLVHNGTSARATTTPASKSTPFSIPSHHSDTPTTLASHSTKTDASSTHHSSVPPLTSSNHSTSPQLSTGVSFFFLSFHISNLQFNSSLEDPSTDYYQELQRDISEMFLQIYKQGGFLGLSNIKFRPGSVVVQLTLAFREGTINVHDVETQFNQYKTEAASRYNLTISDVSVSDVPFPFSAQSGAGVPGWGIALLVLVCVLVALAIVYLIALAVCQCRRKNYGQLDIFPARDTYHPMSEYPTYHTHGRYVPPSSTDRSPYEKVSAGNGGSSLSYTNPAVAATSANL
Sequence of CD30 (human) (P28908 19-595): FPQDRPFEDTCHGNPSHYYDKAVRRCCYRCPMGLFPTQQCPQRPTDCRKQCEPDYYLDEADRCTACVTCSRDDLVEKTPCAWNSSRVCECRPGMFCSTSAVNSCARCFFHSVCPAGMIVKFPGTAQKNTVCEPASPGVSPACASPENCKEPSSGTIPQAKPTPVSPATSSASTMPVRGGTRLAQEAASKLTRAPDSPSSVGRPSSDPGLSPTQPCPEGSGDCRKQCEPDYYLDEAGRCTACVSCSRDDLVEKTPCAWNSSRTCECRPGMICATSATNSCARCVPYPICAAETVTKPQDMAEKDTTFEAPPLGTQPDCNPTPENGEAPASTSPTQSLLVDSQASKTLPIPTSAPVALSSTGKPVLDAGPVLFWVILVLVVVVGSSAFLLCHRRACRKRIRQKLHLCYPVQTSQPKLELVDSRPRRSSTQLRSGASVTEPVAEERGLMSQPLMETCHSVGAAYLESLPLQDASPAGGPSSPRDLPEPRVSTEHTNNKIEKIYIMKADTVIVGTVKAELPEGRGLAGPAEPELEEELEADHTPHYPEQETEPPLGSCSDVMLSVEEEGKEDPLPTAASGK
Sequence of CD98 (human) (P08195 103-630): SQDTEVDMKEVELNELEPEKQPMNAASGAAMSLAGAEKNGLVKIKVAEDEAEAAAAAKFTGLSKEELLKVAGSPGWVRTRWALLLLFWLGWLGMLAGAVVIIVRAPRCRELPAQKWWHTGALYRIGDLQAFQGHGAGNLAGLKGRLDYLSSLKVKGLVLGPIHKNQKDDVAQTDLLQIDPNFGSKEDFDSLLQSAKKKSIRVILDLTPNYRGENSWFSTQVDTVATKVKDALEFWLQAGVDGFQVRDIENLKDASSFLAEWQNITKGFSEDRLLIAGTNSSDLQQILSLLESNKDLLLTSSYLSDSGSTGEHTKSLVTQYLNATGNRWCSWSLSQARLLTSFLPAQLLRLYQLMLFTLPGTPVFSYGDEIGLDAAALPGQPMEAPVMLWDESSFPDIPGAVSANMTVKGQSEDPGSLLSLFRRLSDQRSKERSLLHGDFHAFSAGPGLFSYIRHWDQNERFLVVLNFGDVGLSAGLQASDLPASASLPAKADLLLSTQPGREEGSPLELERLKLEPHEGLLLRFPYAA
Sequence of CD29 (human) (P05556 21-798): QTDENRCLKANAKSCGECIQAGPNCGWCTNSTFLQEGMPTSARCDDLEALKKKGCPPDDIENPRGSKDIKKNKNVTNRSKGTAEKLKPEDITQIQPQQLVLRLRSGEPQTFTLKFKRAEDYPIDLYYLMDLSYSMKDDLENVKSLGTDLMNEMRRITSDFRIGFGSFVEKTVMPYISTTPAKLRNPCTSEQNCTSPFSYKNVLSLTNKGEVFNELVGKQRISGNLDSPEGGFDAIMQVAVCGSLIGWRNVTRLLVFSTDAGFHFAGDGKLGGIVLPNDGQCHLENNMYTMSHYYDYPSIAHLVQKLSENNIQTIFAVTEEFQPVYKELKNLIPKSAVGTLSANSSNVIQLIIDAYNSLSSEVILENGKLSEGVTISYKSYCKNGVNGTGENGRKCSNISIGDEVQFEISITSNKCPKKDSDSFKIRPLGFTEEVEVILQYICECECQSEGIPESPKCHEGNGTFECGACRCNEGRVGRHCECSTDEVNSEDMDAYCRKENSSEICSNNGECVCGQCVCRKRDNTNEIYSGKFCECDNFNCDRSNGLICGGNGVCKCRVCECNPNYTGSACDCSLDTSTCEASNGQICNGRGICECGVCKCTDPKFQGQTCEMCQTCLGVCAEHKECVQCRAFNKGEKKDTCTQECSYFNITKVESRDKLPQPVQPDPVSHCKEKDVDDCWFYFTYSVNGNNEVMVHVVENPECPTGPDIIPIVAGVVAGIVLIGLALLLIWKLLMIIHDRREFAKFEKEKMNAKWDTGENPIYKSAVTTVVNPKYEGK
Sequence of CD46 (human) (P15529 35-392): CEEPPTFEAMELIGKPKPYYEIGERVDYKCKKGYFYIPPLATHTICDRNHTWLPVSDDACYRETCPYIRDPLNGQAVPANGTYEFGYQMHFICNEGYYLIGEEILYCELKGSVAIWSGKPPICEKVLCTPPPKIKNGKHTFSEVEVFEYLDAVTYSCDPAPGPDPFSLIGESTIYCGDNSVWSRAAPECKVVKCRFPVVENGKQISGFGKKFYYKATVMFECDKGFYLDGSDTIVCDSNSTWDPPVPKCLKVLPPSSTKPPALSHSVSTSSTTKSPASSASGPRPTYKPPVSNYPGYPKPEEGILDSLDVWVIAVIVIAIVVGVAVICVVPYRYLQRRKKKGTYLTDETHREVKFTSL
Sequence of Annexin A1 (ANXA1) (human) (P04083 2-346): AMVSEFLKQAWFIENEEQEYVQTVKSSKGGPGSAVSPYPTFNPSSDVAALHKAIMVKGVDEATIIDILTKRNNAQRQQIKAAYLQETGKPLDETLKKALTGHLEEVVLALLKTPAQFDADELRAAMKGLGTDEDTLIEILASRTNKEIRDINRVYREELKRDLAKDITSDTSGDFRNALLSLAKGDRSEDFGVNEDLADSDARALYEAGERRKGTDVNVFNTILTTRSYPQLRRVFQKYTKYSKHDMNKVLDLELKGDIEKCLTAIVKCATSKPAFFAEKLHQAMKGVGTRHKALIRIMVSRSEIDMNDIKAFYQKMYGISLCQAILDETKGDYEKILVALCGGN

As to `COC(=O)c1ccc([C@@H]2c3[nH]c4ccccc4c3C[C@@H](C(=O)OC)N2C(=O)CCl)cc1` [RSL3], the “Enhancement of ferroptosis by StcE co-treatment” value in assay [1] (dose response ± 50 nM StcE, OVCAR-3) is listed as “no enhancement of ferroptosis”.
On to `CCOC(=O)c1ccc(NC2CCCCC2)c(N)c1` [ferrostatin-1], for which the “Suppression of erastin2 + StcE induced ferroptosis” value in assay [1] (1 μM ferrostatin-1) is “fully suppressed”.
For the compound “Anti-MUC1/episialin antibody, clone 214D4 (EMD Millipore)”, the Maximum MFI observed in binding assay in assay [2] was 328 AU.
In assay [3], “Isotype control antibody, clone MOPC-21 (BioLegend)” gave a Maximum MFI observed in binding assay of 0.1 AU.
On to “Mouse IgG1 anti-human CD340 (erbB2/HER-2) antibody, clone 24D2 (BioLegend)”, for which the Maximum MFI observed in binding assay in assay [4] was 311 AU.
In turn, “anti-Annexin A1 antibody, clone 74/3 (BioLegend)” showed a Maximum MFI observed in binding assay in assay [5] of 1.3 AU.
In assay [6], “anti-CD29 antibody, clone P5D2 (BioLegend)” displayed a Maximum MFI observed in binding assay of 23.7 AU.
Compound “anti-CD30 antibody, clone BY88 (BioLegend)” displayed a Maximum MFI observed in binding assay in assay [7] of 9.8 AU.
In [8], “anti-CD43 antibody, clone CD43-10G7 (BioLegend)” yielded a Maximum MFI observed in binding assay of 160 AU.
As to “anti-CD46 antibody, clone TRA-2-10 (BioLegend)”, in assay [9], the Maximum MFI observed in binding assay amounted to 64.9 AU.
In [10], “anti-CD98 antibody, clone MEM-108 (BioLegend)” displayed a Maximum MFI observed in binding assay of 234 AU.
In assay [11], “anti-CD236 antibody, clone QA20A41 (BioLegend)” showed a Maximum MFI observed in binding assay of 188 AU.
As usually defined, the Kd is the equilibrium constant for the complex coming apart. Read a high Kd as a looser complex. “ddStcE^W366A (ΔC, ΔINS and W366A), engineered StcE (from UniProt O82882 36-803) (enzyme)” displayed a Kd in [12] of 2 µM.
